Test [1] has as its target T1, PrP^Sc (pathogenic mouse prion protein, RML, in infected Balb-c mouse brain homogenate) (mouse), P04925.
In test [2] the target is T1, PrP^Sc (pathogenic mouse prion protein, …). The source holds these as a separate data set.

This note sets out measurements from patent US20090191571A1.

Read-outs that look alike come from different tables or passages of the source.

Regarding GGGKKRAKAGG (modifications not checked) [Peptide reagent SEQ ID NO:98], in test [1], the ELISA A405nm came to 1.46 A405nm.
Still for that read-out and setting: with GGGAGAAAAGAVVGGLGG (modifications not checked) [Peptide reagent SEQ ID NO:56] the figure was 0.313 A405nm; with PHGGGWGQ (modifications not checked) [Peptide reagent SEQ ID NO:71], 0.263 A405nm.
GGGAKRPKPGG (modifications not checked) [Peptide reagent SEQ ID NO:104] showed an ELISA A405nm in test [2] of 0.273 A405nm.
GGGKKKKKKKK (modifications not checked) [Peptide reagent SEQ ID NO:85] returned an ELISA A405nm in test [1] of 0.53 A405nm.
For the molecule GGGKKAPKPGG (modifications not checked) [Peptide reagent SEQ ID NO:106], the ELISA A405nm in test [2] stood at 0.268 A405nm.
GGGKKRPKPGGGKKRPKPGG (modifications not checked) [Peptide reagent SEQ ID NO:72] returned an ELISA A405nm in test [1] of 0.522 A405nm.
As to KKKAGAAAAGAVVGGLGG (modifications not checked) [Peptide reagent SEQ ID NO:65], the ELISA A405nm in test [1] was found to be 0.635 A405nm.
The same measure, in the same setting: with GGGNKPSKPK (modifications not checked) [Peptide reagent SEQ ID NO:79] the figure was 0.24 A405nm.
The molecule GGGKKRPAPGG (modifications not checked) [Peptide reagent SEQ ID NO:107] yielded an ELISA A405nm in test [2] of 0.578 A405nm.
GGTHNQWNKPSKPKTN (modifications not checked) [Peptide reagent SEQ ID NO:54] yielded an ELISA A405nm in test [1] of 0.253 A405nm.
Same read-out and setting: next, GGGKPSKPK (modifications not checked) [Peptide reagent SEQ ID NO:80]: 0.225 A405nm.
For the molecule GGGKARPKPGG (modifications not checked) [Peptide reagent SEQ ID NO:105], the ELISA A405nm in test [2] was 0.256 A405nm.
In turn, GGWGQGGGTHNQWNKPSKPKTN (modifications not checked) [Peptide reagent SEQ ID NO:53] displayed an ELISA A405nm in test [1] of 0.254 A405nm.
In test [1], GGGGPKRKGPK (modifications not checked) [Peptide reagent SEQ ID NO:73] displayed an ELISA A405nm of 1.06 A405nm.
